Starred links: 1 amine or outer side, 2 acyl side, 3 side chain; linkers in the order of their positions; H or OH if unused. Positions of bridges follow the written chain, without caps; N, C: chain ends. Non-standard residues stand in square brackets, D forms with d. Primed or numbered codes have the meaning given here. *: point of attachment. PyrS2″ = (S)-3-amino-1-((pent-4-en-1-yloxy)carbonyl)pyrrolidine-3-carboxylic acid (stapling residue), C=CCCCOC(=O)N1CC[C@@](N[*:1])(C(=O)[*:2])C1; B5(18) = 2,2-bis(4-pentenyl)glycine (2-amino-2-(pent-4-en-1-yl)hept-6-enoic acid), stitching residue, C=CCCCC(CCCC=C)(N[*:1])C(=O)[*:2]; B5(4) = 2,2-bis(4-pentenyl)glycine = 2-amino-2-(pent-4-en-1-yl)hept-6-enoic acid (stitching residue), C=CCCCC(CCCC=C)(N[*:1])C(=O)[*:2]; TfeGA = (S)-2-amino-3-((carboxymethyl)(2,2,2-trifluoroethyl)amino)propanoic acid, O=C([C@H](CN(CC(=O)[*:3])CC(F)(F)F)N[*:1])[*:2]; TriAzDap = Dap whose side chain is a 1H-1,2,3-triazol-1-yl bearing the bracketed 4-substituent; B5(3) = 2,2-bis(4-pentenyl)glycine (stitching residue), C=CCCCC(CCCC=C)(N[*:1])C(=O)[*:2]; Phe(3-COOH) = N[C@@H](Cc1cccc(C(=O)O)c1)C(=O)O; Phe(2-CF3) = N[C@@H](Cc1ccccc1C(F)(F)F)C(=O)O; Phe(2-Cl) = N[C@@H](Cc1ccccc1Cl)C(=O)O; Bta = N[C@@H](Cc1csc2ccccc12)C(=O)O; αAllylPro = C=CC[C@@]1(C(=O)O)CCCN1; tBuAla = CC(C)(C)C[C@H](N)C(=O)O; 3Thi = N[C@@H](Cc1ccsc1)C(=O)O; S8 = C=CCCCCCC[C@](C)(N)C(=O)O; CMe2CO2H = CC(C)(C(=O)O)*; hSer = N[C@@H](CCO)C(=O)O; Abu = CC[C@H](N)C(=O)O; Aib = CC(C)(N)C(=O)O
T1: beta-catenin in DLD1 TCF/LEF luciferase reporter cells (UniProt P35222 1-781)
T1 sequence (looked up): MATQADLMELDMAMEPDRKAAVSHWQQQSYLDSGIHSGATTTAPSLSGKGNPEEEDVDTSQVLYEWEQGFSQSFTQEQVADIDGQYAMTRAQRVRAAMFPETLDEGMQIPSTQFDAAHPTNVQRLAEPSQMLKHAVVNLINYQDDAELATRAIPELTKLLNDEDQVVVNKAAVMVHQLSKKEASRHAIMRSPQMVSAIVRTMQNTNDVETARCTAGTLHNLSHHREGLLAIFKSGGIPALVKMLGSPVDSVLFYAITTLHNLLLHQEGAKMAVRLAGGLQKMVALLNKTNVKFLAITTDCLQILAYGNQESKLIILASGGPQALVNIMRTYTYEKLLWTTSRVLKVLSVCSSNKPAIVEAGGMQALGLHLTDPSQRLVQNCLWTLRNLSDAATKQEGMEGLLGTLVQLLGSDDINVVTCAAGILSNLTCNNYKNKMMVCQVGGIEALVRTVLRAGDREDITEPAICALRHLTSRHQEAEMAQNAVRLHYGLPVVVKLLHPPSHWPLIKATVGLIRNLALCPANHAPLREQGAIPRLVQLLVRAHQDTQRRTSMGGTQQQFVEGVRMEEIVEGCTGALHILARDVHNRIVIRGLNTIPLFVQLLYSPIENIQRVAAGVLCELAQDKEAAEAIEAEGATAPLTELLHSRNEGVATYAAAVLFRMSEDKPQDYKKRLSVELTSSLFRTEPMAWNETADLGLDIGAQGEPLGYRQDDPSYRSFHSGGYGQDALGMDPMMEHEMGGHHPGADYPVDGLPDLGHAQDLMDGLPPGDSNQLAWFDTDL

T2: beta-catenin in DLD1 TCF/LEF luciferase reporter cells (UniProt P35222 1-781)
T2 sequence (looked up): T1 sequence (looked up)

T3: B-cat-Halo (beta-catenin HaloTag NanoBRET construct expressed in HEK293 cells) (UniProt P35222 1-781)
T3 sequence (looked up): T1 sequence (looked up)

T4: beta-catenin in DLD1 TCF/LEF luciferase reporter cells (UniProt P35222 1-781)
T4 sequence (looked up): T1 sequence (looked up)

T5: B-cat-Halo (UniProt P35222 1-781)
T5 sequence (looked up): T1 sequence (looked up)

T6: beta-catenin in DLD1 TCF/LEF luciferase reporter cells (UniProt P35222 1-781)
T6 sequence (looked up): T1 sequence (looked up)

T7: beta-catenin in DLD1 TCF/LEF luciferase reporter cells (Homo sapiens (Human), UniProt P35222 1-781)
T7 sequence: T1 sequence (looked up)


molecular target: T1, beta-catenin in DLD1 TCF/LEF luciferase …; assay: cell-based or functional assay

Row | DLD1 reporter assay Abs IC50 | Binder
1 | 5.2 µM | Ac-[αAllylPro]D[tBuAla][B5(3)]D[TfeGA]AAFF[PyrS2″]F[Bta]Q-NH2 (staple 1-4, 4-11) [I-988]
2 | 10.8 µM | Ac-[αAllylPro]D[tBuAla][B5(3)]D[TfeGA]AAF[hSer][S8][Phe(2-Cl)][Bta]Q-NH2 (staple 1-4, 4-11) [I-996]
3 | 4.4 µM | Ac-[αAllylPro]D[tBuAla][B5(3)]D[TfeGA]AAF[hSer][PyrS2″][Phe(2-Cl)][Bta][hSer]-NH2 (staple 1-4, 4-11) [I-993]

molecular target: T2, beta-catenin in DLD1 TCF/LEF luciferase …; assay: cell-based or functional assay

Row | DLD1 4% Abs IC50 | Binder
4 | 2.6 µM | Ac-[αAllylPro]D[tBuAla][B5(3)]D[TriAzDap](CMe2CO2H)AAFL[PyrS2″][Phe(2-CF3)][Bta]S-NH2 (staple 1-4, 4-11) [I-2374]
5 | 2.1 µM | Ac-[αAllylPro]D[tBuAla][B5(3)]D[TriAzDap](CH2CMe2CO2H)AAFL[PyrS2″][Phe(2-CF3)][Bta]S-NH2 (staple 1-4, 4-11) [I-2372]
6 | 1 µM | Ac-[αAllylPro]D[tBuAla][B5(3)]D[Phe(3-COOH)]AAFL[PyrS2″][Phe(2-CF3)][Bta]QLA-NH2 (staple 1-4, 4-11) [I-2378]

molecular target: T3, B-cat-Halo (beta-catenin HaloTag …); assay: cell-based or functional assay

Row | NanoBRET Abs IC50 | Binder
7 | 2.3 µM | Ac-[αAllylPro]D[tBuAla][B5(3)]D[Phe(3-COOH)][Aib]AF[Abu][PyrS2″][3Thi][Bta][Me2Gln]A-NH2 (staple 1-4, 4-11) [Ac-PL3-Asp-Npg-B5-Asp-3COOHF-Aib-Ala-Phe-Abu-PyrS2-3Thi-BztA-Me2Gln-Ala-NH2]
8 | 2.5 µM | Ac-[αAllylPro]D[tBuAla][B5(3)]D[TfeGA]AAFL[PyrS2″][3Thi][Bta][Me2Gln]A-NH2 (staple 1-4, 4-11) [Ac-PL3-Asp-Npg-B5-Asp-TfeGA-Ala-Ala-Phe-Leu-PyrS2-3Thi-BztA-Me2Gln-Ala-NH2]
9 | 6.2 µM | Ac-[αAllylPro]D[tBuAla][B5(3)]D[Phe(3-COOH)][Aib]AF[Abu][PyrS2″][Phe(2-CF3)][Bta][Me2Gln]A-NH2 (staple 1-4, 4-11) [Ac-PL3-Asp-Npg-B5-Asp-3COOHF-Aib-Ala-Phe-Abu-PyrS2-2F3MeF-BztA-Me2Gln-Ala-NH2]

molecular target: T4, beta-catenin in DLD1 TCF/LEF luciferase …; assay: cell-based or functional assay

Row | DLD1 4% Abs IC50 | Binder
10 | 0.6 µM | Ac-[αAllylPro]D[tBuAla][B5(3)]D[Phe(3-COOH)][Aib]AF[Abu][PyrS2″][3Thi][Bta][Me2Gln]A-NH2 (staple 1-4, 4-11) [Ac-PL3-Asp-Npg-B5-Asp-3COOHF-Aib-Ala-Phe-Abu-PyrS2-3Thi-BztA-Me2Gln-Ala-NH2]
11 | 1.4 µM | Ac-[αAllylPro]D[tBuAla][B5(3)]D[TfeGA]AAFL[PyrS2″][3Thi][Bta][Me2Gln]A-NH2 (staple 1-4, 4-11) [Ac-PL3-Asp-Npg-B5-Asp-TfeGA-Ala-Ala-Phe-Leu-PyrS2-3Thi-BztA-Me2Gln-Ala-NH2]
12 | 6.4 µM | Ac-[αAllylPro]D[tBuAla][B5(3)]D[Phe(3-COOH)][Aib]AF[Abu][PyrS2″][Phe(2-CF3)][Bta][Me2Gln]A-NH2 (staple 1-4, 4-11) [Ac-PL3-Asp-Npg-B5-Asp-3COOHF-Aib-Ala-Phe-Abu-PyrS2-2F3MeF-BztA-Me2Gln-Ala-NH2]

molecular target: T5, B-cat-Halo; assay: cell-based or functional assay

Row | NanoBRET Abs IC50 | Binder
13 | 8.9 µM | Ac-[αAllylPro]D[tBuAla][B5(18)]DDAAFT[PyrS2″][Phe(2-Cl)][Bta]S-NH2 (staple 1-4, 4-11) [I-1015]
14 | 14 µM | Ac-[αAllylPro]D[tBuAla][B5(18)]D[TfeGA]FAFN[PyrS2″][Phe(2-Cl)][Bta]Q-NH2 (staple 1-4, 4-11) [I-1008]
15 | 23.9 µM | Ac-[αAllylPro]D[tBuAla][B5(3)]D[TfeGA]AAF[hSer][S8][Phe(2-Cl)][Bta][hSer]-NH2 (staple 1-4, 4-11) [I-1000]
16 | 26.3 µM | Ac-[αAllylPro]D[tBuAla][B5(3)]D[TfeGA]AAFS[S8][Phe(2-Cl)][Bta][hSer]-NH2 (staple 1-4, 4-11; also: later-eluting HPLC isomer) [I-999]

molecular target: T6, beta-catenin in DLD1 TCF/LEF luciferase …; assay: cell-based or functional assay

Row | DLD1 4% Abs IC50 | Binder
17 | 5.7 µM | Ac-[αAllylPro]D[tBuAla][B5(18)]DDAAFT[PyrS2″][Phe(2-Cl)][Bta]S-NH2 (staple 1-4, 4-11) [I-1015]
18 | 4.7 µM | Ac-[αAllylPro]D[tBuAla][B5(18)]D[TfeGA]FAFN[PyrS2″][Phe(2-Cl)][Bta]Q-NH2 (staple 1-4, 4-11) [I-1008]
19 | 1.9 µM | Ac-[αAllylPro]D[tBuAla][B5(3)]D[TfeGA]AAF[hSer][S8][Phe(2-Cl)][Bta][hSer]-NH2 (staple 1-4, 4-11) [I-1000]
20 | 5.6 µM | Ac-[αAllylPro]D[tBuAla][B5(3)]D[TfeGA]AAFS[S8][Phe(2-Cl)][Bta][hSer]-NH2 (staple 1-4, 4-11; also: later-eluting HPLC isomer) [I-999]

molecular target: T7, beta-catenin in DLD1 TCF/LEF luciferase …; assay: cell-based or functional assay

Row | DLD1 4% Abs IC50 | Binder
21 | 15.9 µM | Ac-[αAllylPro]D[tBuAla][B5(4)]DDAAFT[PyrS2″][Phe(2-Cl)][Bta]S-NHEt (staple 1-4, 4-11) [I-1244]

Reference: US20240116985A1 (published 2024)
